Values quoted from earlier work, collected in patent US20200222508A1 (Arecor Limited, priority 2016, published 2020).

Settings: in vivo

Substance	circulating half-life
Albiglutide: GLP-1 dimer fused to human albumin, SEQ ID NO: 5	96 to 170 h
Dulaglutide: GLP-1 analogue consisting of GLP-1(7-37) covalently linked to an Fc fragment of human IgG4, SEQ ID NO: 6	approximately 5 days
Lixisenatide: analogue of exendin-4, proline omitted at position 38, six lysine residues added at C-terminal, SEQ ID NO: 8	2 to 4 h
